Changes are numbered by the printed parent chain. Blank lines part the entries; values can stand above or below the binder they belong to.
Legend:
[1] = target: T1, hu-M-IL1RAP construct, positions S21-T367 (extracellular domain of the membrane form of human IL1RAP) (human, UniProt Q9NPH3 21-367); test: ELISA, purified mAb
T1 construct: Biotinylated when captured on the Biacore chip
T1 sequence: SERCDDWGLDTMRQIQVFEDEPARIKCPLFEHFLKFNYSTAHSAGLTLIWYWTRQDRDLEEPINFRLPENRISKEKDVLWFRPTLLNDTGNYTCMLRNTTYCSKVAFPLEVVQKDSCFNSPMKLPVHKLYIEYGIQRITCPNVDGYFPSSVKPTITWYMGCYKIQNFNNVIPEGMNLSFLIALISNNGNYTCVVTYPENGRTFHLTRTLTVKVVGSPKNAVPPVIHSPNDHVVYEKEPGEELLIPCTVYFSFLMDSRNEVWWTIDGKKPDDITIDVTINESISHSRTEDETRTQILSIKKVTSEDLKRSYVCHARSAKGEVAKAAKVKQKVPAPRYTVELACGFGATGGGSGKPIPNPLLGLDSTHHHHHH
Experimental: (§1) After removing the coating solution, unspecific binding was blocked by adding 200 μL of assay/blocking solution containing 1% bovine serum albumin (BSA) in phosphate buffered saline (PBS) pH 7.4 (ELISA diluent) and incubation at room temperature for one hour with agitation or overnight at 4° C. without agitation. Plates were then washed three times with 300 μL of PBS, 0.05% TWEEN®-20 (wash buffer). 100 μL of culture supernatant from individual hybridoma clones (or purified antibodies at the indicated concentration) was added to individual wells followed by incubation at room temperature for one hour with agitation. […] The plate was incubated at room temperature for one hour with agitation, washed six times with wash buffer and developed for 3-10 minutes by adding 50 μL/well of tetramethylbenzidine (TMB) microwell peroxidase substrate (Scytek Laboratories, Inc., Logan, UT, USA; catalogue number TM1999).

[2] = target: T2, cyno-M-IL1RAP construct, positions S21-T367 (cynomolgus monkey, UniProt P59822 21-367 (rhesus entry)); test: ELISA, purified mAb
T2 construct: Biotinylated when captured on the Biacore chip; also called cy-M-IL1RAP
T2 sequence: T1 sequence with L183F, T273P, K326T
Experimental: as §1

[3] = target: T3, mu-M-IL1RAP construct, positions S21-T367 (mouse, UniProt Q61730 21-367); test: ELISA, purified mAb
T3 construct: also called mo-M-IL1RAP; mouse-M-IL1RAP
T3 sequence: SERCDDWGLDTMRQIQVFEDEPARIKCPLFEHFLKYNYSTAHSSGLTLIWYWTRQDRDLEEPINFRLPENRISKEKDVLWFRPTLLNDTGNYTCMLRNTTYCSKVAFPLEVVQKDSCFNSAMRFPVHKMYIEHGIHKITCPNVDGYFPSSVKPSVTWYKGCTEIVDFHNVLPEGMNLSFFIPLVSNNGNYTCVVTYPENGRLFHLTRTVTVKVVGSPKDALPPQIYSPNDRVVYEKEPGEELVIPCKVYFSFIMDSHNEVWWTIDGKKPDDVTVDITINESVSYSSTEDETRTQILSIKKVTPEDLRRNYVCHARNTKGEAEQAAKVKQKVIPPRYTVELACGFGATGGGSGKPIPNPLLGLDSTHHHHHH
Experimental: as §1

[4] = target: T4, hu-S-IL1RAP construct, positions S21-Q356 (soluble human IL1RAP) (human, UniProt Q9NPH3 21-350); test: ELISA, purified mAb
T4 sequence: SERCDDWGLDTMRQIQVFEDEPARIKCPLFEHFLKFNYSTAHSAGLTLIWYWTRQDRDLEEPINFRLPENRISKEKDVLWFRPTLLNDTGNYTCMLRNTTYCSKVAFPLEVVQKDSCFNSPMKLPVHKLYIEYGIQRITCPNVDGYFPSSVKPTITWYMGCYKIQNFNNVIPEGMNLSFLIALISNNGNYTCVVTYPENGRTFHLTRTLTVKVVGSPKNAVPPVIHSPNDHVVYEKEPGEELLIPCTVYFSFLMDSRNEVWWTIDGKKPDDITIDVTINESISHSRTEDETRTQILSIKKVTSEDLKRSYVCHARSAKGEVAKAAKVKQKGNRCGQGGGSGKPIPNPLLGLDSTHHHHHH
Experimental: as §1

[5] = target: T1, hu-M-IL1RAP construct, positions …; test: BLI (OCTET), mAb on AMC sensor, 25 C
Experimental: (§2) The BLI experimental format immobilizes the antibody on a biolayer surface with the IL1RAP antigen in solution. […] All samples were placed in black 96-well plates and the experiment was performed at 25° C. […] The biosensors were equilibrated in experimental buffer at 25° C. for ten minutes prior to starting the experiment.
(§3) The kinetics experiment was performed with the following steps, where the step name, solution and time are listed: Baseline (buffer—60 seconds), Loading (antibody—200 seconds), Baseline 2 (buffer—minimum 120 seconds), Association (analyte—200-300 seconds) and Dissociation (buffer—1000 seconds). The BLI signal resulting from analyte association and dissociation of the antigens from the immobilized antibody was analyzed using the OCTET® Data Analysis software (Pall ForteBio). First, a reference subtraction was performed on all recorded traces using the reference well (biosensor that underwent the same steps as experimental wells but no analyte for the Association step), then all the traces were aligned to the beginning of the Association step.

[6] = target: T2, cyno-M-IL1RAP construct, positions …; test: BLI (OCTET), mAb on AMC sensor, 25 C
Experimental: as §2, §3

[7] = target: T5, human IL1RAP (hu-IL1RAP) on human cells (human, UniProt Q9NPH3 21-570); test: cell-based or functional assay
T5 sequence: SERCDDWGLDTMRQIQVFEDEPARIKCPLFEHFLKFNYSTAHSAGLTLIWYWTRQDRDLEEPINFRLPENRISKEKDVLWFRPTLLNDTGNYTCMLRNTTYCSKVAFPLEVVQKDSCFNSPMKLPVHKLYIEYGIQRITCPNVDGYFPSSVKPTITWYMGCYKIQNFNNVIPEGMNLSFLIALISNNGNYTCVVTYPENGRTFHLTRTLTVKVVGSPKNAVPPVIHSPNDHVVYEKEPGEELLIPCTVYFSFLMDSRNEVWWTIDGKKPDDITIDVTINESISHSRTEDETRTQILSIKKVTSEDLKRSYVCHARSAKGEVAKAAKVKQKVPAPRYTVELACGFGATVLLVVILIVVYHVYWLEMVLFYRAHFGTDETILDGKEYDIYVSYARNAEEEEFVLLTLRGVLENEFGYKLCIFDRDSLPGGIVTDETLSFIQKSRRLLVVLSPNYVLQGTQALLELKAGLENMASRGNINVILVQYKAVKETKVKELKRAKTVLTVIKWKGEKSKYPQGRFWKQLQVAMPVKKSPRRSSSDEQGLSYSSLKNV

[8] = target: T1, hu-M-IL1RAP construct, positions …; test: ELISA, hybridoma supernatant
Experimental: as §1

[9] = target: T1, hu-M-IL1RAP construct, positions …; test: ELISA, mAb at 10 nM
Experimental: as §1
(§4) Binding domain mapping: Binding domain mapping of the 15 purified antibodies was carried out using the above-described ELISA assay with the following IL1RAP polypeptide constructs coated at 1 μg/ml on the assay plates: hu-M-IL1RAP, hu-M-IL1RAP-D1, hu-M-IL1RAP-D1D2, and hu-M-IL1RAP-D3.

[10] = target: T6, hu-M-IL1RAP-D3 construct, positions K238-T367 (human); test: ELISA, mAb at 10 nM
T6 chain: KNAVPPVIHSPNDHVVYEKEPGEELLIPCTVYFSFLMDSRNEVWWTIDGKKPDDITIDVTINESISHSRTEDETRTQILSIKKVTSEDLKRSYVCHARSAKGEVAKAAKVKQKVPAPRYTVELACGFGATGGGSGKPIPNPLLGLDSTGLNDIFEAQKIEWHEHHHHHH
Experimental: as §1, §4

[11] = target: T5, human IL1RAP (hu-IL1RAP) on human cells; test: cell-based or functional assay; remark: listed apart in the source
[12] = target: T5, human IL1RAP (hu-IL1RAP) on human cells; test: cell-based or functional assay; remark: listed apart in the source

EC50 [1]: 0.026 nM
EC50 [2]: 0.024 nM
EC50 [4]: 0.029 nM
Kd [5]: 0.219 nM
koff [5]: 0.000103 s⁻¹
kon [5]: 469000 M⁻¹ s⁻¹
Kd [6]: 0.142 nM
koff [6]: 5.74e-05 s⁻¹
kon [6]: 413000 M⁻¹ s⁻¹
HEK-Blue, IL-1β, % inhibition at 100 nM [7]: 99%
HEK-Blue, IL-33, % inhibition at 100 nM [7]: 93%
A450 [8]: 1.44 A450
A450 [9]: 1.23 A450
A450 [10]: 1.44 A450
HEK-Blue, IL-1α, IC50 [11]: 4.7 nM
HEK-Blue, IL-1β, IC50 [11]: 1 nM
HEK-Blue, IL-33, IC50 [11]: 3.71 nM
HEK-Blue, IL-36α, IC50 [11]: 2.52 nM
HEK-Blue, IL-36β, IC50 [11]: 981 pM
HEK-Blue, IL-36γ, IC50 [11]: 665 pM
HEK-Blue SEAP, IL-1β, % inhibition (supernatant) [12]: 84%
HEK-Blue SEAP, IL-33, % inhibition (supernatant) [12]: 65%
B1: 11C5(Hy) (purified mAb from the 11C5 hybridoma) (antibody, V domains shown)
VH: EVQLVESGGGLVKPGGSLKLSCAASGFTFSNYAMSWVRQTPEKRLEWVATVTEGGDYNYCLDDVKGRFTISRDNANDNLYLQMSHLKSEDSARYYCARDRWPYFFDYWGQGTTLTVSS
VL: DIQMTQSPASLSVSVGETVTITCRASENIYSNLAWYQQKQGRSPQLLVYGAKNLADGVPSRFSGSGSGTQYSLNINSLQSEDFGTYYCQHFWTTPRTFGGGTKLEIK
notes: Mouse hybridoma mAb; also called 11C5(Hy) mAb; mAb 11C5(Hy)
binding result [3]: no binding (tested: 20 nM (highest tested))

EC50 [1]: 0.039 nM
EC50 [2]: 0.032 nM
EC50 [4]: 0.035 nM
HEK-Blue, IL-1β, % inhibition at 100 nM [7]: 89%
HEK-Blue, IL-33, % inhibition at 100 nM [7]: 69%
A450 [8]: 1.01 A450
A450 [9]: 1.12 A450
A450 [10]: 1.46 A450
HEK-Blue SEAP, IL-1β, % inhibition (supernatant) [12]: 48%
HEK-Blue SEAP, IL-33, % inhibition (supernatant) [12]: 33%
B2: 13D8 (purified mAb from hybridoma 13D8) (antibody, V domains shown)
VH: EVQLVESGGGLVKPGGSLKLSCTASGFTFSNYAMSWVRQTPEKRLEWVATISDGGNYTYYPDNVKGRFTISRDIAKNNLYLQMSHLKSEDTAMYYCARDRWPYFFDFWGQGTTLTVSS
VL: B1 VL with E27D, Q38E, R42K, K52T, N74K, T85S, T97S, I106L
notes: Mouse hybridoma mAb
binding result [3]: no binding (tested: 20 nM (highest tested))

EC50 [1]: 0.039 nM
EC50 [2]: 0.032 nM
EC50 [4]: 0.035 nM
HEK-Blue, IL-1β, % inhibition at 100 nM [7]: 72%
HEK-Blue, IL-33, % inhibition at 100 nM [7]: 56%
A450 [8]: 0.99 A450
A450 [9]: 1.18 A450
A450 [10]: 1.4 A450
HEK-Blue SEAP, IL-1β, % inhibition (supernatant) [12]: 53%
HEK-Blue SEAP, IL-33, % inhibition (supernatant) [12]: 51%
B3: 10A11 (purified mAb from hybridoma 10A11) (antibody, V domains shown)
VH: EVQLQQSGAELVKPGASVRLSCTSSGFNIKDYFMHWVKQRTEQGLEWVGRIDPEDGETQYAPNFQDKATITVDTSSNTVYLQLSSLTSEDTAVYYCFRPLYYGNSPWFAYWGQGTLVTVSP
VL: DIQMTQTTSSLSASLGDRVTISCRASQDISNYLNWYQQKPDGTVKLLIYYTSTLHSGVPSRFSGSGSGTDYSLTISNLEPEDIATYYCHQYSKFPPTFGSGTKLEIK
notes: Mouse hybridoma mAb
binding result [3]: no binding (tested: 20 nM (highest tested))
